Results reported in publication PMC3395618.

Each molecule was assayed against HLA-Cw*0102 (human (endogenous in T2)).

Row | Molecule | HLA-Cw*0102 expression on peptide-pulsed T2 cells (antibody DT9, flow cytometry) as compared to non-peptide pulsed T2 cells [fold]
1 | p24 Gag162-171 (from UniProt P04591 162-171) (peptide) | > 5
2 | p24 Gag164-173 (from UniProt P04591 164-173) (peptide) | > 5
3 | p24 Gag177-186 (from UniProt P04591 177-186) (peptide) | > 5
4 | p24 Gag146-155 (from UniProt P04591 146-155) (peptide) | > 5
5 | p24 Gag176-185 (from UniProt P04591 176-185) (peptide) | > 5
6 | SDIAGTTSTL [p24 Gag234-243 (…)] | > 5
7 | LKALGPAATL [p24 Gag334-343 (…)] | > 5
8 | AAEWDRLHPV [p24 Gag209-218 (…)] | > 5
9 | VIPMFSALSE [p24 Gag168-177 (…)] | > 5
